According to patent US20130034894A1, “NOVEL ALLENE OXIDE SYNTHASE DERIVED FROM LEMNA PAUCICOSTATA” (priority 2010, published 2013):

Experiments:
[1] = Activity testing in KODA production (HPLC quantitation of KODA); assay type: biochemical; conditions: 0.32 ng protein in 20 μl 9-HPOT reaction solution, room temperature, 10 minutes; relative to AtAOS
Excerpt: The allene oxide synthase activity can be determined by allowing a 9-product specific lipoxygenase to act on α-linolenic acid, and then adding a given amount of allene oxide synthase to the enzymatic reaction product 9-hydroperoxylinolenic acid (9-HPOT) to produce KODA, and the KODA produced is quantitatively analyzed by HPLC.
After the SHLpAOS sequence integrated into the pTAC-2 vector by the above method was cleaved with NcoI and XhoI, it was introduced into a commercially available vector pET41a (Novagen) for protein expression to obtain a plasmid pET41a/SHLpAOS for expression of Lemna paucicostata allene oxide synthase. This plasmid was transformed into Escherichia coli strain BL21(DE3) (Novagen). Then, it was inoculated in 3 ml of the LB medium containing 30 mg/l kanamycin, and cultured under shaking overnight at 37° C. and 250 rpm. 100 μl of this culture liquid was added to 10 ml of the LB medium containing the same concentration of kanamycin and 1% glucose and cultured under shaking at 37° C. and 250 rpm for 3-4 hours. […]
In the activity testing in KODA production, 5 mM linolenic acid solution (dissolved in 0.1% Tween 80 solution) was prepared, and reacted with lipoxygenase extracted from rice germ at pH 7 at room temperature for 10 minutes to synthesize 9-hydroperoxylinolenic acid (9-HPOT) solution. […] 10 μl of this solution was analyzed by HPLC. […]

[2] = Kinetic analysis of allene oxide synthase (decrease in absorbance at 234 nm, Hanes-Woolf plot); assay type: biochemical; conditions: for Kcat / Km / Vmax: substrate 9-HPOT 5-53 μM, 40 mM phosphate buffer pH 7.5, 1% EtOH, 25° C.
Experimental: SHLpAOS obtained from Lemna paucicostata SH strain was subjected to kinetic analysis. Using a reaction mixture comprising 40 mM phosphate buffer (pH 7.5) and 1% EtOH, the reaction was carried out at a temperature of 25° C. The substrate 9-HPOT was tested at the substrate concentration of 5-53 μM. The substrate 9-HOPT was added as an EtOH solution, and the final concentration of EtOH was adjusted to 1%. 100 μl of the reaction mixture was added into a cuvette, and a decrease in absorbance at 234 nm was scanned over time for 1 minute at an interval of 2 seconds using the SmartSpec Plus Spectrophotometer (Bio-Rad). From the A234 determined, the amount of the reaction product was calculated (e=25,000). Kinetic parameters were determined using the Hanes-Woolf plot ([S]/v versus [S] plot). […] It is believed that compared to AtAOS, SHLpAOS is a very useful AOS in the practical production of KODA.

Row | Molecule | Activity in KODA production, higher than the AtAOS protein [1] [fold] | Affinity for 9-HPOT, higher than AtAOS ([2]; relative to AtAOS) | Kcat value, higher than in AtAOS ([2]; relative to AtAOS) | Kcat/Kn value, higher than in AtAOS ([2]; relative to AtAOS) | Vmax, higher than AtAOS ([2]; relative to AtAOS) | Kcat [2] [s⁻¹] | Km [2] [µM] | Vmax [2] [µmol/s]
1 | SHLpAOS: allene oxide synthase obtained from the Lemna paucicostata SH strain, expressed in Escherichia coli (SEQ ID NO: 2, 480 aa) (protein, listed as Lemna paucicostata) MSVSQSDDKAALVPQKTIPGSYGIPFITPLKDRLDFFSNEYQFFQSRVESYGSTIVRLNAPPGPFMAKNPQVIAILDGKSFPVLFDTSKVEKKNIFTGTYMPSTALTGGYRVCAYLDPSEPNHTKIKQLLLNILFNRKDHVIPEFHRAYEKLFDDMDAEIAKSGKFVFNDHNDGAAFEFLGRLFFGVSPSETELGAGGVKDANLWLFSQLCPLMTLGFLPKLLEDLLLHTFPLPPFLFKGKYQAIYKYISSVATDALTMAENLGLSREEAAHNLLFAVCFNSLGGVKVLFPGILRYIAQAGKNLQASLVSEVRSAVSSTGGELTIEALEKMPLTKSVVYESLRLDPPVKYQYGVVKKDMVIESHDRSYEVKAGETLFGYQPFATRDKKIFGPDADNFVAERFIGEEGAKVLRFVVWSNGPETTDPTPVDKQCPGKNLVVLISRLLVAEFFLRYDFFDAEIGAVPLAVKTTITSLTKATTR | ~7 | about 5 fold | about 2.8 fold | about 14 fold | about 2.8 fold | 709.2 ± 44.3 | 7.1 ± 1.9 | 4.7 ± 0.3
2 | AtAOS: A. thaliana-derived allene oxide synthase (AOS) protein used as the control, expressed in Escherichia coli (protein, UniProt Q96242 34-518, looked up) Allene oxide synthase, …: SGSETPDLTVATRTGSKDLPIRNIPGNYGLPIVGPIKDRWDYFYDQGAEEFFKSRIRKYNSTVYRVNMPPGAFIAENPQVVALLDGKSFPVLFDVDKVEKKDLFTGTYMPSTELTGGYRILSYLDPSEPKHEKLKNLLFFLLKSSRNRIFPEFQATYSELFDSLEKELSLKGKADFGGSSDGTAFNFLARAFYGTNPADTKLKADAPGLITKWVLFNLHPLLSIGLPRVIEEPLIHTFSLPPALVKSDYQRLYEFFLESAGEILVEADKLGISREEATHNLLFATCFNTWGGMKILFPNMVKRIGRAGHQVHNRLAEEIRSVIKSNGGELTMGAIEKMELTKSVVYECLRFEPPVTAQYGRAKKDLVIESHDAAFKVKAGEMLYGYQPLATRDPKIFDRADEFVPERFVGEEGEKLLRHVLWSNGPETETPTVGNKQCAGKDFVVLVARLFVIEIFRRYDSFDIEVGTSPLGSSVNFSSLRKASF |  |  |  |  |  | 255.5 ± 4.8 | 36.3 ± 1.3 | 1.7 ± 0.03
